In general, stoichiometry N refers to a count of units in the complex or per binding partner.

In doi:10.1101/2023.01.17.524398 one finds stoichiometry N data, which are given here for one substance.

This assay deals with Aplysia punctata ink toxin (APIT), recombinant (Aplysia punctata). As to the kind of experiment: MALDI mass spectrometry.

With “Aplysia punctata ink toxin (APIT), recombinant (enzyme)”, the stoichiometry N is 2.
